# Source: patent publication US20250082756A1 (Regeneron, published 2025)
# Residue numbers refer to the chain shown, from its start.
# T1: MUC16-nub ectodomain antigen (human MUC16 membrane proximal domain P13810-P14451 having a myc-myc-his tag) (human)
# T1 construct: also called MUC16 ectodomain
# T1 chain: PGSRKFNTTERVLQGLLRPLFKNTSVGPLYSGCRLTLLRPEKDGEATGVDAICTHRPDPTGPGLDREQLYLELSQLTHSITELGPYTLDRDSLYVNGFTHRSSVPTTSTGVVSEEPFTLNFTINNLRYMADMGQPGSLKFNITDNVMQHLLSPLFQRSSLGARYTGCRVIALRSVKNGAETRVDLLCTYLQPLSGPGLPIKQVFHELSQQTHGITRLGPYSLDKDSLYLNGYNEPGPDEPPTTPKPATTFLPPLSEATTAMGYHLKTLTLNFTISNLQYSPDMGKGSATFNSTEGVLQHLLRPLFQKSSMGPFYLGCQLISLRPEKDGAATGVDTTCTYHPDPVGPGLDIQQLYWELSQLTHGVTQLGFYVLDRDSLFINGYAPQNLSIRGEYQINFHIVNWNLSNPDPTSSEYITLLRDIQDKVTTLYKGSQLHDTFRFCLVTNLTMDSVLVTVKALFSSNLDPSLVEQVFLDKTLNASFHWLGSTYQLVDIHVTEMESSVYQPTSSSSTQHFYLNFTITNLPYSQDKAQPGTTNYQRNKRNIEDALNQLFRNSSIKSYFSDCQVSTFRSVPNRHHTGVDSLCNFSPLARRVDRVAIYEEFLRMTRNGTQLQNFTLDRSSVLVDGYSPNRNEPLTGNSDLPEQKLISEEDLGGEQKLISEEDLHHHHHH
# T2: MUC16 ectodomain stably expressed on engineered RD tumor cells (high, medium or low levels) (human)
# T2 chain: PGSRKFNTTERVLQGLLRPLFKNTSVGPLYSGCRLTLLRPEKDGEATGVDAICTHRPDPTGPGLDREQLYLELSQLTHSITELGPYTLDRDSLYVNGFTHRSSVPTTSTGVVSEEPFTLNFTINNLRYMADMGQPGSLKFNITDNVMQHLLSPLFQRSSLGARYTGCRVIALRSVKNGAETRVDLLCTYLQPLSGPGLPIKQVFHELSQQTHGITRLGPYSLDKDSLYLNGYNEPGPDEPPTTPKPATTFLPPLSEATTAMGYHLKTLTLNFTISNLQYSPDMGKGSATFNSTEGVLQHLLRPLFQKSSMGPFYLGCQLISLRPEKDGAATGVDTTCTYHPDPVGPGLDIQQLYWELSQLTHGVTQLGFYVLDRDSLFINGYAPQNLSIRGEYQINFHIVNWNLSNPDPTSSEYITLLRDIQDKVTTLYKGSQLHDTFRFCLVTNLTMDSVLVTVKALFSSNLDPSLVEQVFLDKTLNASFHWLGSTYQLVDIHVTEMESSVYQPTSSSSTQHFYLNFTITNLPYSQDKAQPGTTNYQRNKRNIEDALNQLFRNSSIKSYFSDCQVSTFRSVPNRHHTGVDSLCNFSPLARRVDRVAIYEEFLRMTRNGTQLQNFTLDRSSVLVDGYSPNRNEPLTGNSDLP
# B1: Anti-MUC16 8813 (antibody, V domains shown)
# VH: QVQLVQSGAEVKKPGASVKVSCKAFGYTLTGYYIHWVRQAPGQGLEWMGWINPNNGGTNYAQKFQGRVTMTRDKSISTAYMELSRLRSDDTAVYYCARSLELLPDGMDVWGQGTTVTVSS
# VL: not shown
# notes: also called BBz) and pBB4019 (8813 L-H
# B2: Anti-MUC16 8799 (antibody, V domains shown)
# VH: EVQLVESGGGLEQPGRSLRLSCTASGFAFGDHTMSWVRQAPGKGLEWVGFIRSRAYGGTTEYAASVKGRFTISRDDSKSIAYLQMDSLKTEDTAVYYCTSGGYDSSLHYYYYYHGMDVWGRGTTVTVSS
# VL: EIVLTQSPGTLSLSPGERATLSCRASQSITSSYLAWYQQRPGQAPRLLIYGASSRATGIPDRFSGSGSGTDFTLTISRLEPEDFAVYYCQQYGSSPWTFGQGTKVEIK
# notes: also called BBz) and pBB4011 (8799 L-H
# B3: Anti-MUC16 8808 (antibody, V domains shown)
# VH: QVQLVESGGGVVQPGRSLRLSCVASGFTFSNYGIHWVRQAPGKGLEWVAVISDDGSFKFYADSVKGRFTISRDNSKNTLYLQMNSLRVEDSAVYHCAKWQHNWNDGGFDYWGQGTLVTVSS
# VL: B2 VL with G9D, I29L, T30S, S32N, Q38R, R40K, A52I
# notes: also called BBz) and pBB4015 (8808 L-H
# B4: Anti-MUC16 8810 (antibody, V domains shown)
# VH: EVQLVESGGALVQPGGSLRLSCAASGFTFSSYAMHWVRQAPGKGLEFVSTISYNGGTTYYADSVKGRFTVSRDNSKNTVFLRMGSLRTEDMAVYYCARAAAPWGQGTLVTVSS
# VL: B2 VL with G9D, I29V, T30S, S31N, S32R, R40K, Q90H
# notes: also called BBz) and pBB4017 (8810 L-H
# B5: Anti-MUC16 8794 (antibody, V domains shown)
# VH: QVQLVESGGGLVKPGGSLRLSCAASGFTFRDYSMSWIRQAPGKGLEWVSYVTFFNSAIYYADSVKGRFTISRDNAKNSLYLQMNSLRAEDTAVYYCAREREPIVGGFDYWGQGTLVTVSS
# VL: DIQMTQSPSSLSASVGDRVTITCRASQSINSYLNWYQQKPGKAPKLLIYAASSLQGGVPSRFSGGGSGTDFTLTITSLQPEDFATFYCQQSYSSPPITFGQGTRLEIK
# notes: also called BBz) and pBB4009 (8794 L-H
# B6: Anti-MUC16 8755 (antibody, V domains shown)
# VH: EVQLVESGGGLVQPGRSLRLSCAASGFTFNDYAMHWVRQSPGKGLEWVSGIDWNGGSIDYADSVKGRFTISRDTAKNSLYLQMNSLKVEDTALYYCAKDIGHWNYIGGMDVWGQGTTVTVSS
# VL: B5 VL with S31I, L46F, G56T, G65S, T76S, Q79E, F86Y, Q90H, S94T
# notes: also called BBz) and pBB4005 (8755 L-H
# B7: Anti-MUC16 8767 (antibody, V domains shown)
# VH: QVQLVESGGGLVKPGGSLRLSCAASGFTFSNYYMSWVRQAPGKGLEWISYISGRGSTIFYADSVKGRITISRDNAKNSLFLQMNSLRAEDTAVYFCVKDRGGYSPYWGQGTLVTVSS
# VL: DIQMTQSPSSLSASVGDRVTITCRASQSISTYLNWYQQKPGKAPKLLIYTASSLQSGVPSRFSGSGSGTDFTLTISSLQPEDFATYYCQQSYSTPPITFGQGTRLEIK
# notes: also called BBz) and pBB4007 (8767 L-H
# B8: Anti-MUC16 7138 (antibody, V domains shown)
# VH: QVQLVQSGAEVKKPGASVKVSCKASGYTFTSSDINWVRQATGQGLEWVGWMNPNYGYTGSARKFQDRVTMTRNTSLSTAYLELHSLRSEDTAVYYCARVTYCSSVTSCFRPFTYWGQGTLVTVSA
# VL: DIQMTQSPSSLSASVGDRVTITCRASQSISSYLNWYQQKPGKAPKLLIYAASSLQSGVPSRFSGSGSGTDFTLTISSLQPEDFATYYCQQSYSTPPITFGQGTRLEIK
# notes: also called BBz) and pBB4003 (7138 L-H
# B9: Anti-MUC16 7135 (antibody, V domains shown)
# VH: EVQLVESGGGLVQAGGSLRLSCAASGFTFSYHEMNWVRQAPGKGLEWVSYIGSRGTTKHYADPVKGRFTISRDNAKNSLYLQMNSLRAEDTAVYYCASEVGSILGYSMDVWGQGTTVTVSS
# VL: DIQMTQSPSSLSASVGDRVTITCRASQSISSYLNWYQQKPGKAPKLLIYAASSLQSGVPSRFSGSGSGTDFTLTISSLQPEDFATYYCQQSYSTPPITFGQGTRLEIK
# notes: also called BBz) and pBB4001 (7135 L-H
# B10: Anti-MUC16 8804 (antibody, V domains shown)
# VH: EVQLVESGGGLVQPGRSLRLSCTGSGLTFGDYGMSWVRQAPGKGLEWVGFIRSKGYGGTTEYAASVKGRFTISRDDSKSTAYLQMNSLKTEDTAVYYCTSGGYDSSVHYYYYYYAMDVWGQGTTVTVSS
# VL: not shown
# notes: also called BBz) and pBB4013 (8804 L-H
# B11: pBB4015 CAR (8808 L-H; BBz) (other)
# chain: EIVLTQSPDTLSLSPGERATLSCRASQSLSSNYLAWYRQKPGQAPRLLIYGISSRATGIPDRFSGSGSGTDFTLTISRLEPEDFAVYYCQQYGSSPWTFGQGTKVEIKGGGGSGGGGSGGGGSQVQLVESGGGVVQPGRSLRLSCVASGFTFSNYGIHWVRQAPGKGLEWVAVISDDGSFKFYADSVKGRFTISRDNSKNTLYLQMNSLRVEDSAVYHCAKWQHNWNDGGFDYWGQGTLVTVSSTTTPAPRPPTPAPTIASQPLSLRPEACRPAAGGAVHTRGLDFACDIYIWAPLAGTCGVLLLSLVITLYCKRGRKKLLYIFKQPFMRPVQTTQEEDGCSCRFPEEEEGGCELRVKFSRSADAPAYQQGQNQLYNELNLGRREEYDVLDKRRGRDPEMGGKPRRKNPQEGLYNELQKDKMAEAYSEIGMKGERRRGKGHDGLYQGLSTATKDTYDALHMQALPPR
# Molecular target: T1, MUC16-nub ectodomain antigen (human …)
# Assay: Binder Kd of Table 3; method and antigen not described
row,Binder,Kd
1,B1,0.32 nM
2,B2,0.826 nM
3,B3,0.277 nM
4,B4,1.12 nM
5,B5,0.554 nM
6,B6,0.124 nM
7,B7,1.01 nM
8,B8,0.321 nM
9,B9,10.5 nM
10,B10,1.86 nM

# Molecular target: T1, MUC16-nub ectodomain antigen (human …)
# Assay: cell-based or functional assay
row,Binder,EC50 (read off the curve); IFNγ release of BB4015 CAR T cells against the coating concentration of MUC16 nub
1,B11,~50 ng/mL

# Molecular target: T2, MUC16 ectodomain stably expressed on …
# Assay: cell-based or functional assay
Binder,"percent (%) of tumor cell killing, RD low antigen positive tumor cells, 2.5:1 E:T ratio, 72 hours, impedance analyzer","percent (%) of tumor cell killing, RD medium or high antigen positive tumor cells, all E:T ratios, 72 hours, impedance analyzer"
B11,< 60 % cytotoxicity,> 70 % cytotoxicity
